Laboratory results published in patent US20180243435A1 (AbbVie / Abbott, published 2018).
Positions count from the first letter of the chain named.

What was measured:
[1] = molecular target: T1, DLL3 extracellular domain (amino acids 27-466) displayed on yeast (human, UniProt Q9NYJ7 27-466); assay: fine epitope mapping (phage display peptide library or yeast display of DLL3 ECD mutants)
T1 construct: also called DLL3 ECD; wild type DLL3 ECD
T1 sequence: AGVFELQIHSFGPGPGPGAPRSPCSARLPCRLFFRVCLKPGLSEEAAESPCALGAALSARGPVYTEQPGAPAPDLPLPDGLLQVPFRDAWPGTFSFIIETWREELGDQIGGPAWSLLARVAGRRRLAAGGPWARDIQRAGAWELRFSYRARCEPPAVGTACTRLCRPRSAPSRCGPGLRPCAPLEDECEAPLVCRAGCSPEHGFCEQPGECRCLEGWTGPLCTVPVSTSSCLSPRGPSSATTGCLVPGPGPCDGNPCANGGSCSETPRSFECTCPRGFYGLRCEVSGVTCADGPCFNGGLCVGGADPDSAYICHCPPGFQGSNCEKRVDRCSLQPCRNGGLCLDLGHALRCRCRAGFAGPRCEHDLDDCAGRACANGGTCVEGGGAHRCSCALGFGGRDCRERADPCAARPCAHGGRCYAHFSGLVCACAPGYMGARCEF

[2] = molecular target: T2, DLL3 on DLL3-expressing HEK293T cells (human, UniProt Q9NYJ7 27-618); assay: immunohistochemistry on HEK293T parental vs DLL3-expressing cell pellets
T2 construct: Cells were formalin fixed and paraffin embedded for IHC; also called DLL3-overexpressing HEK293T cell pellets; DLL3-expressing HEK293T FFPE sections
T2 sequence: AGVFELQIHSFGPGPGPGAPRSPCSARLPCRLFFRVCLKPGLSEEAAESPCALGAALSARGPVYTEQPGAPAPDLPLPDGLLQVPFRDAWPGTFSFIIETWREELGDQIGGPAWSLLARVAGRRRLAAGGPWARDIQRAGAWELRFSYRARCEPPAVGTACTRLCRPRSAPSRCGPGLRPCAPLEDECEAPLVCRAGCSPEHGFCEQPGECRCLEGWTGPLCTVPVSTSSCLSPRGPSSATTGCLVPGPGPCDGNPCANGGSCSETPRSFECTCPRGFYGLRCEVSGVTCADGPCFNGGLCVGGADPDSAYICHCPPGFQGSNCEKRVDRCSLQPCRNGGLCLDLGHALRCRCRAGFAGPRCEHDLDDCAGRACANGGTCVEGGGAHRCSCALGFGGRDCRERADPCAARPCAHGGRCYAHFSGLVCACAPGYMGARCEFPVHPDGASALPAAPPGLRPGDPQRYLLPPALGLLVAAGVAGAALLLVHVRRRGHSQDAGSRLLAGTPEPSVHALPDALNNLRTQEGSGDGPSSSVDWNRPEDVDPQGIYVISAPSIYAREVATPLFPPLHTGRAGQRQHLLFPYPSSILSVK
Method: (§1) In order to identify an IHC-compatible anti-DLL3 antibody, IHC was performed on HEK293T parental cell pellets or DLL3-expressing HEK293T cell pellets using numerous anti-DLL3 antibodies of the invention. Several murine anti-DLL3 antibodies (including SC16.65) were able to specifically detect DLL3-overexpressing HEK293T cell pellets more effectively than other anti-DLL3 antibodies of the invention that were tested (data not shown). The ability of these antibodies to specifically detect DLL3 was confirmed by a competition experiment in which the relevant anti-DLL3 antibody was mixed with a 5× molar ratio excess of hDLL3-His protein and then incubated with DLL3-expressing HEK293T formalin fixed and paraffin embedded (FFPE) sections.

human DLL3-His protein = molecular target: T3, human DLL3-His protein (human, UniProt Q9NYJ7 27-492); assay: IHC competition: antibody mixed with a 5x molar ratio excess of hDLL3-His before staining FFPE sections
T3 construct: Purified from supernatants of CHO-S cells; also called hDLL3-His; recombinant DLL3-His; not shown: His tag
T3 sequence: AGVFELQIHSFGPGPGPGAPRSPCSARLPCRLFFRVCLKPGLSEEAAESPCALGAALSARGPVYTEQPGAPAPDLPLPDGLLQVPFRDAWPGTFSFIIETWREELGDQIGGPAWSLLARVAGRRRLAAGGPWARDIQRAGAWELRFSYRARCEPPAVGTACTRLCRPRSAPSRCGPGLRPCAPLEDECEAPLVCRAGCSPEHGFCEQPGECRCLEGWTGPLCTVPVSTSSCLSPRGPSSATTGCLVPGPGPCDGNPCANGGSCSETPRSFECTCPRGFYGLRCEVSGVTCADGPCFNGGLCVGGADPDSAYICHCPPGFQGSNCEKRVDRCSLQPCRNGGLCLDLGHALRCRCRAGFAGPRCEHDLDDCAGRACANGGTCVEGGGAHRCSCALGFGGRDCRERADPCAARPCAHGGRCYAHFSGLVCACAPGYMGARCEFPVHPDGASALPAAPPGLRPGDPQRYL
Method: as §1

B1: SC16.34 (antibody, V domains shown)
VH: QIQLVQSGPELKRPGETVKISCKASGYTFTNYGMNWVKQAPGKGLKWMGWINTYTGDPTYADDFKGRFAFSLETSASTAYLQINNLKNEDTATYFCARIGGNSPSDYWGQGTSLTVSS
VL: SIVMTQTPKFLLVSAGDRVTITCKASQSVSNDVAWYQQKPGQSPKLLIYYASNRYSGVPDRFTGSGYGTDFTFTISTVQAEDLAVYFCQQDYSSPWTFGGGTKLEIK
notes: murine hybridoma mAb
**Q.** Does B1 bind [1]?
**A.** binds

B2: SC16.56 (antibody, V domains shown)
VH: B1 VH with R13K, G49A, D57E, Y80S, N84I, G101D, N102S, S113T
VL: B1 VL with A34V, S56T, T63A, T72S, S93T, K107R
notes: murine hybridoma mAb
**Q.** Does B2 bind [1]?
**A.** binds

B3: SC16.65 (antibody, V domains shown)
VH: QVTLKESGPGILQPSQTLSLTCSFSGFSLSTSGMGVGWIRQPSGKGLEWLALIWWDDVKRYNPALKSRLTISKDASSSQVFLKIASVDTADTATYYCARIASYDYDVVYAMDYWGQGTSVSVSS
VL: QIVLTQSPALMSASPGEKVTMTCSVTSSVSYMYWYQQKPRSSPKPWIYLTSNLASGVPARFSGSGSGTSYSLTISSVEAEDAATYYCQQWRNNPFTFGSGTKVEIK
notes: murine hybridoma mAb
**Q.** Does B3 bind [2]?
**A.** binds

**Q.** Does B3 bind (human DLL3-His protein)?
**A.** binds

B4: SC16.23 (antibody, V domains shown)
VH: QVTLKESGPGILQPSQTLSLTCSFSGFSLSTSNTGIGWIRQPSGTGLEWLAHIWWNDDKYYNPSLKSRLTISKETSNNQVFLKITNVDTADTASYFCVQIGRDYSNYAWYFDVWGAGTTVTVSS
VL: QIVLTQSPAIMSASPGEKVTLTCSASSSVSSRYLYWYQQKPGSSPKLWIYSTSNLASGVPARFSGSGSGTSYSLIISSMEAEDAASYFCHQWSNYPLTFGAGTKLELK
notes: murine hybridoma mAb
**Q.** Does B4 bind [1]?
**A.** binds
